Residue numbers refer to the chain shown, from its start. Where two headings read alike, the source gives them in different places.
Key:
Hen-Egg-Lysozyme = molecular target: T1, Hen-Egg-Lysozyme (hen, UniProt P00698 19-147); experiment: SPR (Biacore 2000), biotinylated antigen on streptavidin chip, purified VH
T1 construct: Biotinylated for Biacore; also called HEL
Description: (§1) The affinities of VH clones were measured using surface plasmon resonance (using a Biacore2000 instrument; GE Healthcare). For this purpose, biotinylated antigen diluted in PBS was injected over a streptavidin (SA) sensor chip (Biacore AB). Serial dilutions of purified VH were injected over the flow cell containing the corresponding target antigen. Equilibrium dissociation constants were calculated using the BIAevaluation 4.1 software package (Biacore AB).
(§2) The antigen-specific VH domains were expressed and purified. Affinity measurements were performed by surface plasmon resonance on a Biacore 2000 instrument.

protein A [1] = molecular target: T2, protein A (UniProt P38507 37-477); experiment: Heat/Cool phage ELISA on protein A; signal after 80 C 10 min / 4 C 10 min as % of untreated sample
T2 construct: also called Protein A superantigen
Description: (§3) The aggregation-resistance of clones was analyzed by measuring retention of signal after heat incubation in a phage ELISA format (McCafferty et al., 1990; Jespers et al., 2004). Wells of a Nunc Maxisorp Immuno-plate were coated overnight with protein A at a concentration of about 5 μg/ml in phosphate-buffered saline (PBS). The plate was washed once with PBS and blocked with about 4% (w/v) milk powder diluted in PBS (MPBS). Single colonies were picked from agar plates and grown overnight in 2×TY medium (containing about 16 g/L tryptone; about 10 g/L yeast extract; about 5 g/L NaCl, pH 7.0) supplemented with about 15 μg/ml tetracycline shaking at about 30° C. Cells were removed by centrifugation and phages were biotinylated directly in the culture supernatant by adding biotin-PEO₄-N-hydroxysuccinimide (Pierce; about 50 μM final concentration). For heat selection, supernatant was first incubated at about 80° C. for about 10 min and then at about 4° C. for about 10 min. Supernatant was added to the blocked ELISA wells. After three washes with PBS, bound phage particles were detected using an Extravidin-HRP conjugate (Sigma) and 3,3′,5,5′-tetramethylbenzidine (TMB) substrate. Absorbance was calculated by subtracting measurements at 450 and 650 nm.
Antigen-specific VH domains were selected from the Garvan-2 library by phage display against recombinant protein antigen. After selection, the domains were evaluated for aggregation-resistance using the “Heat/Cool” assay described in Example 1.2, and binding to either or protein A superantigen and or recombinant antigen.

protein A [2] = molecular target: T2, protein A; experiment: Heat/Cool phage ELISA: phage-displayed VH, 80 C 10 min then 4 C 10 min, captured on coated protein A; signal as % of untreated sample
Description: as §3, with “nm. […]” for “nm.”

human prolactin receptor = molecular target: T3, human prolactin receptor (human, UniProt P16471 25-234); experiment: SPR (Biacore 2000), biotinylated antigen on streptavidin chip, purified VH
T3 construct: also called hPRLR; PRLR (Prolactin Receptor)
T3 sequence (looked up): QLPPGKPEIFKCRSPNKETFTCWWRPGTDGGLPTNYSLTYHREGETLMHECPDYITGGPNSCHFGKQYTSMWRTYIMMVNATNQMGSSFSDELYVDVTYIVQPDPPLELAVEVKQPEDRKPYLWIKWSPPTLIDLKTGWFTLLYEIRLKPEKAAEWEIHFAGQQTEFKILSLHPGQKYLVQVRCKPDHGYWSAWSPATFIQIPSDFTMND
Description: as §1, §2

protein A [3] = molecular target: T2, protein A; experiment: Heat/Cool phage ELISA: phage-displayed VH, 80 C 10 min then 4 C 10 min, captured on coated protein A; signal as % of untreated sample; remark: listed apart in the source
Description: as §3, with “Cells were removed by centrifugation and phages were biotinylated directly in the culture supernatant by adding biotin-PEO₄-N-hydroxysuccinimide (Pierce; about 50 μM final concentration). For heat selection, supernatant was first incubated at about 80° C. for about 10 min and then at about 4° C. for about 10 min. Supernatant was added to the blocked ELISA wells.” left out
To identify additional residues in CDR1 that confer aggregation-resistance on VH, surface-exposed residues of DP47 between positions 26 to 35 (numbering according to the Kabat numbering system) were substituted for aspartic acid (D) or glutamic acid (E). […] Correctly folded VH were captured by protein A ELISA and the absorbance signal of the treated sample was calculated as a percentage of the untreated sample.

protein A [4] = molecular target: T2, protein A; experiment: as above; remark: listed apart in the source
Description: as §3, with “For heat selection, supernatant was first incubated at about 80° C. for about 10 min and then at about 4° C. for about 10 min. Supernatant was added to the blocked ELISA wells.” left out
VH domains were produced comprising negatively charged amino acids at positions 28 and/or 35 in CDR1 of DP47 and at least one other position, as set out in Table 7. Aggregation-resistance of the VH domains was assessed using the “Heat/Cool” assay as described in Example 1.2.

[5] = molecular target: T4, human tumor necrosis factor α (human, UniProt P01375 77-233); experiment: SPR (Biacore), biotinylated hTNF on streptavidin chip, purified VH injected from 4 µM down
T4 construct: also called hTNF; human TNF
Description: The affinities of VH clones G07 (anti-hTNF; SEQ ID NO: 5) and G11 (anti-mIL-21; SEQ ID NO: 6) were measured using surface plasmon resonance (using a Biacore machine; GE Healthcare). For this purpose, biotinylated antigen diluted in PBS was injected over a streptavidin (SA) sensor chip (Biacore AB). Serial dilutions of purified VH (with concentrations ranging from about 0.125 to 4 μM) were injected at a flowrate of about 20 μl/min over the flow cell containing the corresponding target antigen. Equilibrium dissociation constants were calculated using the BIAevaluation 4.1 software package (Biacore AB).
Two clones selected for their binding to human tumour necrosis factor (hTNF) or mouse interleukin 21 (mIL-21) were isolated from the Garvan-I libraries, as detailed above (see Materials and Methods section). […] Biacore affinity measurements of anti-human TNF clone G07 (SEQ ID NO: 5) and anti-mouse IL-21 clone G11 (SEQ ID NO: 6) were performed. Serial dilutions of each purified protein, starting at 4 μM, were run on a streptavidin (SA) chip coated with biotinylated hTNF and mIL-21, respectively.

protein A [6] = molecular target: T2, protein A; experiment: Heat/Cool phage ELISA: phage-displayed scFv, 80 C 10 min then 4 C 10 min, captured on coated protein A; signal as % of untreated sample
Description: as §3, with “Cells were removed by centrifugation and phages were biotinylated directly in the culture supernatant by adding biotin-PEO₄-N-hydroxysuccinimide (Pierce; about 50 μM final concentration). For heat selection, supernatant was first incubated at about 80° C. for about 10 min and then at about 4° C. for about 10 min. Supernatant was added to the blocked ELISA wells.” left out
The DP47-CDR1 mutants described above were paired with a common single variable light chain (VL; SEQ ID NO: 3) via a linker (SEQ ID NO: 4) in a scFv format (see the Materials and Methods section for full experimental details). […] Correctly folded scFv were captured by protein A ELISA and the absorbance signal of the treated sample was calculated as a percentage of the untreated sample.

T1 sequence (P00698 19-147): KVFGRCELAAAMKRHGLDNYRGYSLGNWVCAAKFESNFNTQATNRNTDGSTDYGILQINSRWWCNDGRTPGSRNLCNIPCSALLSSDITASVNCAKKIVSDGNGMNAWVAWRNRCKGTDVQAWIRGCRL
T4 sequence (P01375 77-233 limits assumed): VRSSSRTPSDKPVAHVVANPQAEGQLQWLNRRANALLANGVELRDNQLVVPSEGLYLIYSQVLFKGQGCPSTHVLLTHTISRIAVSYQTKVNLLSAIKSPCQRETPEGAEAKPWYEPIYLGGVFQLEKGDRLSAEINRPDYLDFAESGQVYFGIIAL

B1: VHHEL_G08 (anti-HEL VH) (other)
VH: EVQLLESGGGLVQPGGSLRLSCAASGFRISDEDMGWVRQAPGKGLEWVSYIDNNGYSTYYADSVKGRFTISRDNSKNTLYLQMNSLRAEDTAVYYCAKKQYGYQNGGFDYWGQGTLVTVSS
With B1 the Kd (Hen-Egg-Lysozyme) was 65 nM and the “Retained binding (%) after heating” value (protein A [1]) was 83.8%.

B2: DP47 VH G52aD (other, name in Kabat numbering)
VH: QVQLLESGGGLVQPGGSLRLSCAASGFTFSSYAMSWVRQAPGKGLEWVSAISDSGGSTYYADSVKGRFTISRDNSKNTLYLQMNSLRAEDTAVYYCAKSYGAFDYWGQGTLVTVSS
With B2 the “Retained binding to protein A (%)” value (protein A [2]) was 2.1%.

B3: VHHEL_H04 (anti-HEL VH) (other)
VH: EVQLLESGGGLVQPGGSLRLSCAASGFRFDAEDMGWVRQAPGKGLEWVSSIYGPSGSTYYADSVKGRFTISRDNSKNTLYLQMNSLRAEDTAVYYCAKYTSPPQNHGFDYWGQGTLVTVSS
notes: Human VH single domain antibody from the Garvan-2 library
In the case of B3, the Kd (Hen-Egg-Lysozyme) is reported as 28 nM and the “Retained binding (%) after heating” value (protein A [1]) is reported as 87.8%.

B4: VHPRLR_C02 (anti-hPRLR VH) (other)
VH: EVQLLESGGGLVQPGGSLRLSCAASGFRFADEDMGWVRQAPGKGLEWVSDISGDGYSTYYADSVKGRFTISRDNSKNTLYLQMNSLRAEDTAVYYCAKLPPVYLGGAFDYWGQGTLVTVSS
notes: as for B3
B4 was tested, and the Kd (human prolactin receptor) was under 100 nM and the “Retained binding (%) after heating” value (protein A [1]) was 98.8%.

B5: HEL4 VH (other)
VH: QVQLLESGGGLVQPGGSLRLSCAASGFRISDEDMGWVRQAPGKGLEWVSSIYGPSGSTYYADSVKGRFTISRDNSKNTLYLQMNSLRAEDTAVYYCASALEPLSEPLGFWGQGTLVTVSS
B5 was tested, and the “Retained binding to protein A (%)” value (protein A [3]) was 80.2%, the “Retained binding to protein A (%)” value (protein A [2]) was 80.8% and the “Retained binding to protein A (%)” value (protein A [4]) was 87.7%. The “Retained binding (%) after heating” value (protein A [1]) was 88.1%.

B6: VHhTNF_G07 (anti-hTNF VH) (other, not shown: small tags and cut ends)
VH: B5 VH with A99K, L100E, E101D, P102Y, L103D, S104T, E105Y, P106N, L107W
notes: also called clone G07; anti-human TNF clone G07
B6 was tested, and the Kd [5] was 1860 nM.

B7: scFv HEL4 VH - linker - common VL (scFv)
scFv: QVQLLESGGGLVQPGGSLRLSCAASGFRISDEDMGWVRQAPGKGLEWVSSIYGPSGSTYYADSVKGRFTISRDNSKNTLYLQMNSLRAEDTAVYYCASALEPLSEPLGFWGQGTLVTVSSGGGGSGGGGSGGGGSTDIQMTQSPSSLSASVGDRVTITCRASQSISSYLNWYQQKPGKAPKLLIYAYSDLQSGVPSGFSGSGSGTDFTLTISSLQPEDFATYYCQQLMTHPTTFGQGTKVEIKR
notes: also called HEL4 (scFv)
In the case of B7, the “Retained binding to protein A” value (protein A [6]) is reported as 56%.

B8: scFv DP47 VH SYA31-33DED - linker - common VL (scFv)
scFv: QVQLLESGGGLVQPGGSLRLSCAASGFTFSDEDMSWVRQAPGKGLEWVSAISGSGGSTYYADSVKGRFTISRDNSKNTLYLQMNSLRAEDTAVYYCAKSYGAFDYWGQGTLVTVSSGGGGSGGGGSGGGGSTDIQMTQSPSSLSASVGDRVTITCRASQSISSYLNWYQQKPGKAPKLLIYAYSDLQSGVPSGFSGSGSGTDFTLTISSLQPEDFATYYCQQLMTHPTTFGQGTKVEIKR
notes: also called SYA31-33DED (scFv)
In the case of B8, the “Retained binding to protein A” value (protein A [6]) is reported as 45%.

— US20160145328A1 (published 2016)
